Laboratory results: PMC9513391, “Crystal structure of the α-ketoglutarate-dependent non-heme iron oxygenase CmnC in capreomycin biosynthesis and its engineering to catalyze hydroxylation of the substrate enantiomer” (Frontiers in Chemistry, 2022)

Biological target: the molecule itself
Assay: crystal structure; CmnC apo and soaked complexes (L-Arg, L-hArg, alpha-KG, L-Arg/alpha-KG), space group I222, two chains in the asymmetric unit; apo crystals from 200 mM ammonium acetate, 24% v/v PEG 400, 0.1 M sodium citrate pH 5.5, 20°C

B1: CmnC (enzyme)
chain: MTAIREIRLSEPESAQAALLALECAQRYAEPDSADFLADAAVLAHDLPRAVRREVERARLDDRLHALVVRGNDVDQDALGPTPPHWRQARTAASRRYGFLLVLYASLLGDVVGWATQQDGRVVTDVLPIEGQEDSLVSSSSSVELGWHTEDAFSPYRADYVGLFSLRNPDSVATTVAGLDPDLVGPAVVDVLFGERFHIRPDNSHLPTHNSGGRLSDYFAGIVEAVENPRAVSILRGHRDAPQLCVDSDFTTAVDGDAEAAGALDTLIKHLGGALYEVVLGPGDVAFLDNRNVVHGRRPFRARFDGTDRWLKRINVTADLRKSRAARRDAQARVLGEA
notes: CmnC, alpha-ketoglutarate-dependent non-heme iron oxygenase of capreomycin biosynthesis; gene cmnC amplified from genomic DNA of the capreomycin producer (ATCC 23892) and subcloned into pET28a; also called CmnC^apo; wild-type CmnC
stoichiometry N: 2
